In the data set the target is West Nile virus envelope protein domain III (WNDIII, WNE-rDIII) (West Nile virus strain Wengler, UniProt P06935 P06935:582-692). The data set is described as follows: ELONA; unmodified DNA unable to bind. The conditions noted are these: tags: 6xHis; with or without biotin acceptor peptide (BAP); label: 5' biotin.
Sequence of West Nile virus envelope protein domain III (WNDIII, WNE-rDIII) (P06935 582-692, one chain of several): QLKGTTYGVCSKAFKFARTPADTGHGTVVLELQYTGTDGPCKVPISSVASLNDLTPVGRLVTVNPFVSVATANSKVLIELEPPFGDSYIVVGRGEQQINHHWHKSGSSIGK

B1: BN-B99-DNA unmodified (ssDNA)
DNA: GAAGGTGAAGGTCGGCTGAAGCATCAGACCTAAGCCCAAATTGCCGCAGACTCGTTGTGAAGCTTAGGTCTAATGCACCATCATCACCATCTTC
Consider B1, for which the binding result is “no binding”.

B2: BN-B03-DNA unmodified (ssDNA)
DNA: GAAGGTGAAGGTCGGCTGAAGCATTAGACCTAAGCACGCTGCCACAAGTCCTGGTTCCCTGGCTTAGGTCTAATGCACCATCATCACCATCTTC
Take B2: the binding result was “no binding”.

Source of the values: patent publication US20170226511, “[…] FOR BINDING […] PROTEINS” (National University of Singapore, published 2017).
